This is an account of results in doi:10.1101/2022.10.12.511876.

In assay [1] the target is Mpf2Ba1 activated by WCR gut fluid (N-terminally cleaved after Lys25) (Pseudomonas monteilii). As to the kind of experiment: cryo-EM structure.
The target is the same in assay [2]. The experiment in a line: cryo-EM structure. This is another data set of the same source.

Like-named read-outs stand apart in the source and are kept apart here.

As usually defined, the stoichiometry N is the number of molecules, sites or subunits per partner or assembly. On to “Mpf2Ba1 activated by WCR gut fluid (N-terminally cleaved after Lys25) (domain or fragment)”, for which the values for the stoichiometry N in assay [1] and in assay [2] were 22 and 21, respectively.
